Measured values published in US20260144818A1, “ARMED CHIMERIC RECEPTORS AND METHODS OF USE THEREOF” (Senti Biosciences, Inc., priority 2022, published 2026).

Tested on: tumor target cells that constitutively express a fluorescent reporter (mKate)
Assay: Serial killing screen of IL15 formats and combinations with IL21 or IL7
Format: cell-based
Description: 6 to 7 days after transduction, NK cells were collected, counted and seeded in a co-culture with tumor target cells that constitutively express a fluorescent reporter (mKate) at the appropriate effector to target (E:T) ratios. Tumor target cell growth (area) was quantified using an imaging-based system (Incucyte, Sartorius). After 48 to 72 hours of co-culture, new target cells were plated, and the NK cells were collected from the original plates and transferred to newly seeded targets for a 2nd or 3rd tumor re-challenge (serial killing). Target cell area was quantified and compared across different conditions. […] Similar serial target cell killing is shown at a different E:T ratio in FIG. 60E.
Additionally, various constructions of a chimeric protein containing IL15 tethered to the IL15 receptor (FIG. 61A) was tested.

B1: IL7 with crIL15: CAR-NK cells co-expressing IL7 (SEQ ID NO: 394) with crIL15 (protein, UniProt P13232 26-177, looked up)
Interleukin-7: DCDIEGKDGKQYESVLMVSIDQLLDSMKEIGSNCLNNEFNFFKRHICDANKEGMFLFRAARKLRQFLKMNSTGDFDLHLLKVSEGTTILLNCTGQVKGRKPAALGEAQPTKSLEENKSLKEQKKLNDLCFLKRLLQEIKTCWNKILMGTKEH
serial target cell killing: no improvement in serial target cell killing
